The values below are quoted from earlier work in paper PMC5488749.

Read-outs that look alike come from different tables or passages of the source.

In data set [1] the target is Caspr4 C-terminal peptide (Homo sapiens) (UniProt Q9C0A0).
Data set [2] concerns the target neurexin1 C-terminal peptide (Homo sapiens) (UniProt Q9ULB1).
For data set [3] the target is unchanged. This is another data set of the same source.
In data set [4] the target is Caspr4 C-terminal peptide (Homo sapiens) (UniProt Q9C0A0). This is another data set of the same source.

Chain of UniProt Q9C0A0 (Q9C0A0 whole entry, looked up, tested part not stated): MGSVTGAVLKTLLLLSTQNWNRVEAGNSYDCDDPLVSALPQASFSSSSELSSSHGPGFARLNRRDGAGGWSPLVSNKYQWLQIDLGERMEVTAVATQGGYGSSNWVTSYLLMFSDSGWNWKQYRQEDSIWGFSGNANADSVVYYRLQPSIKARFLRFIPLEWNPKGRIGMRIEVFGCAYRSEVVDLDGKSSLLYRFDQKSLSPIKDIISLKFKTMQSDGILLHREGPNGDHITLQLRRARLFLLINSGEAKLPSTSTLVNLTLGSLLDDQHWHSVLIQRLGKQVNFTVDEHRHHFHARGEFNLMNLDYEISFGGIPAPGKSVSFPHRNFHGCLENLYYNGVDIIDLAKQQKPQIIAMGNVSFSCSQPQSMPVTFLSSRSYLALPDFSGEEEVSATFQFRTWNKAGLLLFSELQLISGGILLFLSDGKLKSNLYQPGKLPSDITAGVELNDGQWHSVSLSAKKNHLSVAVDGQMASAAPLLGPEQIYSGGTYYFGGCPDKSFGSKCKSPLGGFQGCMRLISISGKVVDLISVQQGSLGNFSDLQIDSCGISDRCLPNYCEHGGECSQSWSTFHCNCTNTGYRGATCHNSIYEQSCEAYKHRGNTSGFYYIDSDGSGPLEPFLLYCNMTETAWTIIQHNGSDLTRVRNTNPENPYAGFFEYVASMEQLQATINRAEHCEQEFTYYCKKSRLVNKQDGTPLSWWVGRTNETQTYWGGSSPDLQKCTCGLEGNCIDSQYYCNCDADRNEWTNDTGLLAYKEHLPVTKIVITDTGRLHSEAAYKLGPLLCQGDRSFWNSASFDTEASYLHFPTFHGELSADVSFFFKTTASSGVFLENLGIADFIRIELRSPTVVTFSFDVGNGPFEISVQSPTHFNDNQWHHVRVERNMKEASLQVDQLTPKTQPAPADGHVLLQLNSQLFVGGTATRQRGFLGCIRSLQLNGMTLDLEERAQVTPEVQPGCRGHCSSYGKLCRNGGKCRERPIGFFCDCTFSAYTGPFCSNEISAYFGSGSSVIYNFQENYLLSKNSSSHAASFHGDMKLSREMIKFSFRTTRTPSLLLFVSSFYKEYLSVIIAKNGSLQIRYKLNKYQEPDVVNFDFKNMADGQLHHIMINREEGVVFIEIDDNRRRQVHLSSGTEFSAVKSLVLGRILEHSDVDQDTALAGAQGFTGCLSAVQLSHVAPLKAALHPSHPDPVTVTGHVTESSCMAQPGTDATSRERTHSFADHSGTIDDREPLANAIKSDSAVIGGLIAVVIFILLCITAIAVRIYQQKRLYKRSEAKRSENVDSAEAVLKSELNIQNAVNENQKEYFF
Chain of UniProt Q9ULB1 (Q9ULB1 whole entry, looked up, tested part not stated): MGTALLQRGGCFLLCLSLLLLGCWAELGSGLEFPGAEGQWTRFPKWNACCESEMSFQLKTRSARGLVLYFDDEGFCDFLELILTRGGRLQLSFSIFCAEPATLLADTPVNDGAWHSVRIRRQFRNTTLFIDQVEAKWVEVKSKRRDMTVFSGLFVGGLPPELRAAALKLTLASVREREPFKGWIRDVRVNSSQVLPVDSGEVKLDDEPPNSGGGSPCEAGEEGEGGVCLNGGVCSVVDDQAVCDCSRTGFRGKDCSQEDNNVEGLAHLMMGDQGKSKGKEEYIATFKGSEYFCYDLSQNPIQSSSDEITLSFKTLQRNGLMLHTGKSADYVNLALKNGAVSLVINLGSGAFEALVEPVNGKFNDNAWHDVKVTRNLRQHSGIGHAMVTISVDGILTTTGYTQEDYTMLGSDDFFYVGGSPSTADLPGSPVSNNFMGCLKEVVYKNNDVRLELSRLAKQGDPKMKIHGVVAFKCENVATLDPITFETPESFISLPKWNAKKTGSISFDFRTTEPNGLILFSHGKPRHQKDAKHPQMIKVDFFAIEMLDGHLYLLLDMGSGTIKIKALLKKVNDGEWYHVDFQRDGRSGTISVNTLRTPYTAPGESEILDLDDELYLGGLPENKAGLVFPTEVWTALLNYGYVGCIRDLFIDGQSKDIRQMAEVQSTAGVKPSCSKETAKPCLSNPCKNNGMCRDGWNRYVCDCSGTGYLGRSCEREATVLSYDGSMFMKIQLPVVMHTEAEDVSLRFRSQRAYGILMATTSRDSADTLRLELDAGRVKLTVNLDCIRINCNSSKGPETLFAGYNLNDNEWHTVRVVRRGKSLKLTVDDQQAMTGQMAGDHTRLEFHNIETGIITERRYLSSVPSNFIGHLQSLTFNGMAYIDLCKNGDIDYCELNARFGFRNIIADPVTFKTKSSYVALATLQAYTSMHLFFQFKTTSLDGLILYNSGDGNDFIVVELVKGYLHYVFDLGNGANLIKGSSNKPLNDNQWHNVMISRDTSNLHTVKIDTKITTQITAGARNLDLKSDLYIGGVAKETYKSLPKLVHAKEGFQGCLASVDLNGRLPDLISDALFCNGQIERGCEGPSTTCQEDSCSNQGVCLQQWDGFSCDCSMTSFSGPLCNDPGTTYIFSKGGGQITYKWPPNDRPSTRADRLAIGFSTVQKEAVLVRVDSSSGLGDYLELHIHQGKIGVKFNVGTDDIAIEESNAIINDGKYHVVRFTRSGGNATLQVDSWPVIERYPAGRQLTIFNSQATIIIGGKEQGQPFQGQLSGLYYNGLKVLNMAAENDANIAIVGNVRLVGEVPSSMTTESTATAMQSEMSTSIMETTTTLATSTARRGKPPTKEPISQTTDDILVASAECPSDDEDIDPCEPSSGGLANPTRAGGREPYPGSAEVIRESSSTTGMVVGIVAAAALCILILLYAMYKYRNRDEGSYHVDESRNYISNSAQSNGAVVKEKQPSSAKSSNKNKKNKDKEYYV

By Kd is commonly meant the constant that tells how readily two partners part at equilibrium. Regarding Tiam2 PDZ (from UniProt Q8IVF5), the dissociation constant (Kd) in data set [1] was 3 µM; in data set [2], 5 µM.

Tiam1 PDZ (from UniProt Q13009): the Kd in data set [3] was 2400 µM; in data set [4], 18 µM.
